Target: the molecule itself
Experiment: crystal structure; sitting-drop vapor diffusion at 20 °C; crystals soaked 1 h with 5 mM 4-n-propylguaiacol; 2.9 Å; eight subunits in the asymmetric unit

B1: S394V-EUGO5X mutant of eugenol oxidase (EUGO) from Rhodococcus jostii RHA1 (enzyme)
chain: MTRTLPPGVSDERFDAALQRFRDVVGDKWVLSTADELEAFRDPYPVGAAEANLPSAVVSPESTEQVQDIVRIANEYGIPLHPVSTGKNNGYGGAAPRLSGSVIVKTGERMNRILEVNEKYGYALLEPGVTYFDLYEYLQSHDSGLMLDCPDLGWGSVVGNTLDRGVGYTPYGDHFMWQTGLEVVLPQGEVMRTGMGALPGSDAWQLFPYGFGPFPDGMFTQSNLGIVTKMGIALMQRPPASQSFLITFDKEEDLEQIVDIMLPLRINMAPLQNVPVLRNIFMDAAAVSKRTEWFDGDGPMPAEAIERMKKDLDLGFWNFYGTLYGPPPLIEMYYGMIKEAFGKIPGARFFTHEERDDRGGHVLQDRHKINNGIPSLDELQLLDWVPNGGHIGFVPVSAPDGREAMKQFEMVRNRANEYNKDYMAQFIIGLREMYHVCLFIYDTADPEAREEILQMTKVLVREAAEAGYGEYRTHNALMDDVMATFNWGDGALLKFHEKIKDALDPNGIIAPGKSGIWPQRFRGQNL
modifications: covalently bound FAD cofactor
notes: eugenol oxidase (EUGO), Rhodococcus jostii RHA1, UniProt Q0SBK1; EUGO5X = S81H, A423M, H434Y, I445D, S518P, with S394V added; Tag-less protein after SUMO protease; crystals were soaked with 4-n-propylguaiacol; also called sixfold mutant S394V-EUGO5X; source: E. coli, from pBAD-His-Sumo-S394V-EUGO5X, purified (HisTrap, SUMO protease, reverse nickel, Superdex 200)
  stoichiometry N: 2

Reference: paper PMC9684555, “Structure- and computational-aided engineering of an oxidase to produce isoeugenol from a lignin-derived compound” (Nature Communications, 2022)
